Results as given in patent US20030113322A1 (published 2003).
No end group written: not given here.

Target: T1, biotinylated recombinant human soluble CD4 (rhCD4, Repligen) (human, UniProt P01730 26-396, limits assumed, biotinylated (sites not given))
T1 construct: Soluble form, bought; biotinylated with a commercial reagent; also called biotinylated-rhCD4
Assay: Spot: cellulose-bound dodecapeptide, 20 nM biotinylated rhCD4
Description: The saturated membrane was incubated with a 20 nM solution of biotinylated-rhCD4 for 2 h at 37° C. Bound biotinylated-rhCD4 was detected by incubating the membrane for 1 h at 37° with a 1:3000 solution of alkaline phosphatase-conjugated streptavidin (Sigma, St. Louis, Mo., USA) and subsequent addition of 5-bromo-4-chloro-3-indolyl phosphate substrate. […] In all cases, the reactivity of the spots was evaluated by scanning the membrane and measuring the intensities of the spots with the NIH image 1.61 software.
The anti-CD4 immunoreactivity of these peptides was assessed by incubating the membrane with biotinylated-rhCD4.

| binding result | Binder |
| --- | --- |
| binds | LTTFGVHWVRQS (also: bound to cellulose membrane (Spot synthesis), also called VH peptide 29) [cellulose-bound dodecapeptide 29 of the 13B8.2 VH sequence (linear form of CB1)] |
| binds | TTFGVHWVRQSP (also: bound to cellulose membrane (Spot synthesis), also called VH peptide 30) [cellulose-bound dodecapeptide 30 of the 13B8.2 VH sequence (linear form of CB2)] |
| binds | IYSYLAWYQQKQ (also: bound to cellulose membrane (Spot synthesis), also called VL peptide 29) [cellulose-bound dodecapeptide 29 of the 13B8.2 VL sequence (linear form of CB8)] |
